Test system: HIV-1 Rev (HIV-1)
Test: EMSA
Details: scale: fold more Rev than RRE for 50% unbound RNA

## 433-mer RcRE (K-RRE)
  binding signal: 8

Reference: article PMC7842262
